Results on 10 substances are retold here after the supplement of paper PMC5998384.

Data set [1] relates to HeLa Kyoto. Briefly: thermal stability score vs G1/S (z-score of summed log2 fold changes over temperatures); higher = more thermally stable than in G1/S.
For data set [2], the system named is HeLa Kyoto. The data set is described as follows: solubility change mitosis vs G1/S (difference of NP-40 vs SDS log2 ratios) (log2 ratio difference); higher = more soluble in mitosis.
Data set [3] deals with HeLa Kyoto. Briefly: solubility in G1/S (NP-40 vs SDS abundance) (log2 ratio); higher = more soluble. The conditions noted are these: cell cycle stage: G1/S.
Data set [4] relates to HeLa Kyoto. Briefly: melting temperature (median over replicates), in situ; higher = more thermally stable.
Where [5] appears, read: cell cycle stage: early G1 (4.5 h after nocodazole release).
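Wherever melting temperature (median over replicates), in situ is given: HeLa Kyoto cells synchronized by double thymidine or nocodazole block, proteins quantified by TMT10plex mass spectrometry, three independent biological replicates.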
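Wherever solubility change mitosis vs G1/S (difference of NP-40 vs SDS log2 ratios) is given: synchronized HeLa Kyoto cells (double thymidine block for G1/S, nocodazole release for mitosis), protein amounts in NP-40 versus SDS lysates quantified by mass spectrometry, three biological replicates.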
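Wherever solubility in G1/S (NP-40 vs SDS abundance) is given: HeLa Kyoto cells arrested at G1/S by double thymidine block, proteins quantified by TMT10plex mass spectrometry in mild NP-40 versus SDS extracts, three biological replicates.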
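Wherever thermal stability score vs G1/S (z-score of summed log2 fold changes over temperatures) is given: synchronized HeLa Kyoto cells, proteins quantified by TMT10plex mass spectrometry, three biological replicates, mitosis taken 0.5 h after nocodazole release, G1/S directly after double thymidine block.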

Sequence of IRF2BP2 (chain, as listed by the source): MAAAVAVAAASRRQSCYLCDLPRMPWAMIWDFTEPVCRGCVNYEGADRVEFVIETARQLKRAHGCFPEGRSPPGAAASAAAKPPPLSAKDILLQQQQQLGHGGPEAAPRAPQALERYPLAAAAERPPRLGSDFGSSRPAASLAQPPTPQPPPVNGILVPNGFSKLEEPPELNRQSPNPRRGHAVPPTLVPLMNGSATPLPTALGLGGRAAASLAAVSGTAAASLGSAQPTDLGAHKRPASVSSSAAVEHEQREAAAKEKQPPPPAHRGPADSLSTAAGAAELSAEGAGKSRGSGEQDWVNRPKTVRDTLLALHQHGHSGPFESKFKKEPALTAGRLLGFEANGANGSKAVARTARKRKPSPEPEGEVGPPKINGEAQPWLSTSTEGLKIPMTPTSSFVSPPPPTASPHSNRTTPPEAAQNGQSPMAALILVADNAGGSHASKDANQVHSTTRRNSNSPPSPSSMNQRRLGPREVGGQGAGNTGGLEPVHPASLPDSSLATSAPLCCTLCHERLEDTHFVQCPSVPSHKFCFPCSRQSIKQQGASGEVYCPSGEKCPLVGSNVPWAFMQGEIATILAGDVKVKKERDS

For the substance “MSRPLITRSPASPLNNQGIPTPAQLTKSNAPVHIDVGGHMYTSSLATLTKYPESRIGRLFDGTEPIVLDSLKQHYFIDRDGQMFRYILNFLRTSKLLIPDDFKDYTLLYEEAKYFQLQPMLLEMERWKQDRETGRFSRPCECLVVRVAPDLGERITLSGDKSLIEEVFPEIGDVMCNSVNAGWNHDSTHVIRFPLNGYCHLNSVQVLERLQQRGFEIVGSCGGGVDSSQFSEYVLRRELRRTPRVPSVIRIKQEPLD [KCTD1]”, the thermal stability score came out at 0.414 with HeLa Kyoto [1] (setting [5]) and 0.162 in the data set on HeLa Kyoto [1] (cell cycle stage: mitosis). In the data set with HeLa Kyoto [2], the “solubility change mitosis (log2)” value was -0.267. Besides, the “solubility in G1/S (log2)” value in the data set with HeLa Kyoto [3] is 0.464. Besides, the results for the melting temperature in the data set with HeLa Kyoto [4] (cell cycle stage: G1/S) and in the data set on HeLa Kyoto [4] (cell cycle stage: mitosis) were 58.7 °C and 55.9 °C, respectively.
For “MASSAEGDEGTVVALAGVLQSGFQELSLNKLATSLGASEQALRLIISIFLGYPFALFYRHYLFYKETYLIHLFHTFTGLSIAYFNFGNQLYHSLLCIVLQFLILRLMGRTITAVLTTFCFQMAYLLAGYYYTATGNYDIKWTMPHCVLTLKLIGLAVDYFDGGKDQNSLSSEQQKYAIRGVPSLLEVAGFSYFYGAFLVGPQFSMNHYMKLVQGELIDIPGKIPNSIIPALKRLSLGLFYLVGYTLLSPHITEDYLLTEDYDNHPFWFRCMYMLIWGKFVLYKYVTCWLVTEGVCILTGLGFNGFEEKGKAKWDACANMKVWLFETNPRFTGTIASFNINTNAWVARYIFKRLKFLGNKELSQGLSLLFLALWHGLHSGYLVCFQMEFLIVIVERQAARLIQESPTLSKLAAITVLQPFYYLVQQTIHWLFMGYSMTAFCLFTWDKWLKVYKSIYFLGHIFFLSLLFILPYIHKAMVPRKEKLKKME [LPCAT3]”, the thermal stability score with HeLa Kyoto [1] (setting [5]) was 0.0481; in the data set on HeLa Kyoto [1] (cell cycle stage: mitosis), -0.776. Further, the “solubility change mitosis (log2)” value in the data set with HeLa Kyoto [2] is -0.275. For the same substance, in the data set with HeLa Kyoto [3], the “solubility in G1/S (log2)” value is -0.0534. Besides, the melting temperature in the data set on HeLa Kyoto [4] (cell cycle stage: mitosis) worked out at 55.7 °C.
Turning to “MAVFADLDLRAGSDLKALRGLVETAAHLGYSVVAINHIVDFKEKKQEIEKPVAVSELFTTLPIVQGKSRPIKILTRLTIIVSDPSHCNVLRATSSRARLYDVVAVFPKTEKLFHIACTHLDVDLVCITVTEKLPFYFKRPPINVAIDRGLAFELVYSPAIKDSTMRRYTISSALNLMQICKGKNVIISSAAERPLEIRGPYDVANLGLLFGLSESDAKAAVSTNCRAALLHGETRKTAFGIISTVKKPRPSEGDEDCLPASKKAKCEG [RPP30]”, the thermal stability score was -0.0475 with HeLa Kyoto [1] (setting [5]) and -1.92 with HeLa Kyoto [1] (cell cycle stage: mitosis). The “solubility change mitosis (log2)” value in the data set with HeLa Kyoto [2] was -0.0188. In the data set with HeLa Kyoto [3], the “solubility in G1/S (log2)” value was -0.0469. Moreover, the melting temperature in the data set with HeLa Kyoto [4] (cell cycle stage: G1/S) stood at 55.3 °C; in the data set on HeLa Kyoto [4] (cell cycle stage: mitosis), 56.1 °C.
Turning to “MTMDGDSSTTDASQLGISADYIGGSHYVIQPHDDTEDSMNDHEDTNGSKESFREQDIYLPIANVARIMKNAIPQTGKIAKDAKECVQECVSEFISFITSEASERCHQEKRKTINGEDILFAMSTLGFDSYVEPLKLYLQKFREAMKGEKGIGGAVTATDGLSEELTEEAFTNQLPAGLITTDGQQQNVMVYTTSYQQISGVQQIQFS [NFYB]”, the results for the thermal stability score in the data set on HeLa Kyoto [1] (setting [5]) and in the data set on HeLa Kyoto [1] (cell cycle stage: mitosis) were 0.178 and 0.0131, respectively. For the same substance, the “solubility change mitosis (log2)” value in the data set on HeLa Kyoto [2] was determined as 0.064. For the same substance, the “solubility in G1/S (log2)” value in the data set with HeLa Kyoto [3] stood at 0.036. Also, the melting temperature in the data set with HeLa Kyoto [4] (cell cycle stage: G1/S) and in the data set on HeLa Kyoto [4] (cell cycle stage: mitosis) was 54.5 °C each time.
Consider “MEANGLGPQGFPELKNDTFLRAAWGEETDYTPVWCMRQAGRYLPEFRETRAAQDFFSTCRSPEACCELTLQPLRRFPLDAAIIFSDILVVPQALGMEVTMVPGKGPSFPEPLREEQDLERLRDPEVVASELGYVFQAITLTRQRLAGRVPLIGFAGAPWTLMTYMVEGGGSSTMAQAKRWLYQRPQASHQLLRILTDALVPYLVGQVVAGAQALQLFESHAGHLGPQLFNKFALPYIRDVAKQVKARLREAGLAPVPMIIFAKDGHFALEELAQAGYEVVGLDWTVAPKKARECVGKTVTLQGNLDPCALYASEEEIGQLVKQMLDDFGPHRYIANLGHGLYPDMDPEHVGAFVDAVHKHSRLLRQN [UROD]”, for which the thermal stability score is -0.168 in the data set with HeLa Kyoto [1] (setting [5]) and -0.608 with HeLa Kyoto [1] (cell cycle stage: mitosis). Further, in the data set on HeLa Kyoto [2], the “solubility change mitosis (log2)” value was -0.193. Moreover, the “solubility in G1/S (log2)” value in the data set with HeLa Kyoto [3] was found to be 0.254. The melting temperature stood at 56.5 °C in the data set with HeLa Kyoto [4] (cell cycle stage: G1/S) and 56.7 °C with HeLa Kyoto [4] (cell cycle stage: mitosis).
Regarding IRF2BP2, the thermal stability score in the data set on HeLa Kyoto [1] (setting [5]) was -0.348; in the data set with HeLa Kyoto [1] (cell cycle stage: mitosis), -1.16. Also, the “solubility change mitosis (log2)” value with HeLa Kyoto [2] is -0.0308. The “solubility in G1/S (log2)” value with HeLa Kyoto [3] worked out at 0.391. Further, the melting temperature with HeLa Kyoto [4] (cell cycle stage: G1/S) is 53 °C; in the data set with HeLa Kyoto [4] (cell cycle stage: mitosis), 52.6 °C.
Take “MTSRFGKTYSRKGGNGSSKFDEVFSNKRTTLSTKWGETTFMAKLGQKRPNFKPDIQEIPKKPKVEEESTGDPFGFDSDDESLPVSSKNLAQVKCSSYSESSEAAQLEEVTSVLEANSKISHVVVEDTVVSDKCFPLEDTLLGKEKSTNRIVEDDASISSCNKLITSDKVENFHEEHEKNSHHIHKNADDSTKKPNAETTVASEIKETNDTWNSQFGKRPESPSEISPIKGSVRTGLFEWDNDFEDIRSEDCILSLDSDPLLEMKDDDFKNRLENLNEAIEEDIVQSVLRPTNCRTYCRANKTKSSQGASNFDKLMDGTSQALAKANSESSKDGLNQAKKGGVSCGTSFRGTVGRTRDYTVLHPSCLSVCNVTIQDTMERSMDEFTASTPADLGEAGRLRKKADIATSKTTTRFRPSNTKSKKDVKLEFFGFEDHETGGDEGGSGSSNYKIKYFGFDDLSESEDDEDDDCQVERKTSKKRTKTAPSPSLQPPPESNDNSQDSQSGTNNAENLDFTEDLPGVPESVKKPINKQGDKSKENTRKIFSGPKRSPTKAVYNARHWNHPDSEELPGPPVVKPQSVTVRLSSKEPNQKDDGVFKAPAPPSKVIKTVTIPTQPYQDIVTALKCRREDKELYTVVQHVKHFNDVVEFGENQEFTDDIEYLLSGLKSTQPLNTRCLSVISLATKCAMPSFRMHLRAHGMVAMVFKTLDDSQHHQNLSLCTAALMYILSRDRLNMDLDRASLDLMIRLLELEQDASSAKLLNEKDMNKIKEKIRRLCETVHNKHLDLENITTGHLAMETLLSLTSKRAGDWFKEELRLLGGLDHIVDKVKECVDHLSRDEDEEKLVASLWGAERCLRVLESVTVHNPENQSYLIAYKDSQLIVSSAKALQHCEELIQQYNRAEDSICLADSKPLPHQNVTNHVGKAVEDCMRAIIGVLLNLTNDNEWGSTKTGEQDGLIGTALNCVLQVPKYLPQEQRFDIRVLGLGLLINLVEYSARNRHCLVNMETSCSFDSSICSGEGDDSLRIGGQVHAVQALVQLFLERERAAQLAESKTDELIKDAPTTQHDKSGEWQETSGEIQWVSTEKTDGTEEKHKKEEEDEELDLNKALQHAGKHMEDCIVASYTALLLGCLCQESPINVTTVREYLPEGDFSIMTEMLKKFLSFMNLTCAVGTTGQKSISRVIEYLEHC [WAPL]”: the thermal stability score was 0.873 in the data set on HeLa Kyoto [1] (setting [5]) and 2.77 with HeLa Kyoto [1] (cell cycle stage: mitosis). The “solubility change mitosis (log2)” value with HeLa Kyoto [2] was -0.133. Also, the “solubility in G1/S (log2)” value with HeLa Kyoto [3] was -0.00224. For the same substance, the values for the melting temperature in the data set with HeLa Kyoto [4] (cell cycle stage: G1/S) and with HeLa Kyoto [4] (cell cycle stage: mitosis) were 48.1 °C and 49.9 °C, respectively.
Regarding “MALVHKLLRGTYFLRKFSKPTSALYPFLGIRFAEYSSSLQKPVASPGKASSQRKTEGDLQGDHQKEVALDITSSEEKPDVSFDKAIRDEAIYHFRLLKDEIVDHWRGPEGHPLHEVLLEQAKVVWQFRGKEDLDKWTVTSDKTIGGRSEVFLKMGKNNQSALLYGTLSSEAPQDGESTRSGYCAMISRIPRGAFERKMSYDWSQFNTLYLRVRGDGRPWMVNIKEDTDFFQRTNQMYSYFMFTRGGPYWQEVKIPFSKFFFSNRGRIRDVQHELPLDKISSIGFTLADKVDGPFFLEIDFIGVFTDPAHTEEFAYENSPELNPRLFK [NDUFAF1]”, the thermal stability score was 4.31 in the data set with HeLa Kyoto [1] (setting [5]) and 3.52 in the data set with HeLa Kyoto [1] (cell cycle stage: mitosis). In the data set on HeLa Kyoto [2], the “solubility change mitosis (log2)” value was -0.0281. Also, in the data set on HeLa Kyoto [3], the “solubility in G1/S (log2)” value was 0.043. The melting temperature in the data set on HeLa Kyoto [4] (cell cycle stage: G1/S) stood at 54.6 °C; with HeLa Kyoto [4] (cell cycle stage: mitosis), 55.2 °C.
For “MENSTTTISREELEELQEAFNKIDIDNSGYVSDYELQDLFKEASLPLPGYKVREIVEKILSVADSNKDGKISFEEFVSLMQELKSKDISKTFRKIINKREGITAIGGTSTISSEGTQHSYSEEEKVAFVNWINKALENDPDCKHLIPMNPNDDSLFKSLADGILLCKMINLSEPDTIDERAINKKKLTPFTISENLNLALNSASAIGCTVVNIGASDLKEGKPHLVLGLLWQIIKVGLFADIEISRNEALIALLNEGEELEELMKLSPEELLLRWVNYHLTNAGWHTISNFSQDIKDSRAYFHLLNQIAPKGGEDGPAIAIDLSGINETNDLKRAGLMLQEADKLGCKQFVTPADVVSGNPKLNLAFVANLFNTYPCLHKPNNNDIDMNLLEGESKEERTFRNWMNSLGVNPYINHLYSDLADALVIFQLYEMIRVPVNWSHVNKPPYPALGGNMKKIENCNYAVELGKNKAKFSLVGIAGQDLNEGNSTLTLALVWQLMRRYTLNVLSDLGEGEKVNDEIIIKWVNQTLKSANKKTSISSFKDKSISTSLPVLDLIDAIAPNAVRQEMIRRENLSDEDKLNNAKYAISVARKIGARIYALPDDLVEVKPKMVMTVFACLMGKGLNRIK [PLS1]”, the thermal stability score was 0.863 in the data set on HeLa Kyoto [1] (setting [5]) and 0.264 in the data set with HeLa Kyoto [1] (cell cycle stage: mitosis). Besides, the “solubility change mitosis (log2)” value with HeLa Kyoto [2] was -0.0585. Also, the “solubility in G1/S (log2)” value in the data set with HeLa Kyoto [3] worked out at 0.301. Besides, the figures for the melting temperature in the data set on HeLa Kyoto [4] (cell cycle stage: G1/S) and with HeLa Kyoto [4] (cell cycle stage: mitosis) were 52.6 °C and 53.7 °C, respectively.
Regarding “MTKAGSKGGNLRDKLDGNELDLSLSDLNEVPVKELAALPKATILDLSCNKLTTLPSDFCGLTHLVKLDLSKNKLQQLPADFGRLVNLQHLDLLNNKLVTLPVSFAQLKNLKWLDLKDNPLDPVLAKVAGDCLDEKQCKQCANKVLQHMKAVQADQERERQRRLEVEREAEKKREAKQRAKEAQERELRKREKAEEKERRRKEYDALKAAKREQEKKPKKEANQAPKSKSGSRPRKPPPRKHTRSWAVLKLLLLLLLFGVAGGLVACRVTELQQQPLCTSVNTIYDNAVQGLRRHEILQWVLQTDSQQ [LRRC59]”, the thermal stability score in the data set on HeLa Kyoto [1] (setting [5]) was 2.96; in the data set with HeLa Kyoto [1] (cell cycle stage: mitosis), -1.3. Further, the “solubility change mitosis (log2)” value in the data set on HeLa Kyoto [2] came out at 0.236. Further, the “solubility in G1/S (log2)” value with HeLa Kyoto [3] turned out to be 0.751. Besides, the melting temperature was 56.7 °C with HeLa Kyoto [4] (cell cycle stage: G1/S) and 54 °C in the data set on HeLa Kyoto [4] (cell cycle stage: mitosis).
